The test system of the data set is MS2 coat protein. As to the kind of experiment: apparent KD of MS2 coat protein; designed switch direction (-1 OFF switch, 1 ON switch): -1; higher = weaker reporter binding. The method, boiled down: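 Designed RNA switches were transcribed on Illumina chips by stalled E. coli RNA polymerase and titrated with SNAP-549-labelled MS2 coat protein from 0.7 or 1.5 nM, doubling to 3 µM. Step length ran from 0.8–1.5 h at the lowest concentration to 10–20 min at the highest. The apparent KD is the median over clusters for each design, from curve-fitted normalised cluster fluorescence.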

Setting [1] is: Eterna round: R95, input ligand: FMN 200 uM.
Setting [2] is: Eterna round: R95, input ligand: microRNA oligo, concentration not stated.
The mark [3] stands for this setting: Eterna round: R95, input ligand: none.
Where [4] appears, read: input ligand: microRNA oligo, concentration not stated.

Take “CUAUCGUGAGGAUAUGACCCAUAAGCACUAAAGUAGGUGAGUCAGAAGGCACAUGAGGAUCACCCAUGUGGACC [Eternabot (L1) Solution 47] (Eterna round: R97, puzzle: Exclusion 4)”: the “apparent KD of MS2 coat protein” value is, setting by setting: (input ligand: FMN 200 uM) 59.8 nM; (input ligand: none) 21.9 nM.

As to “GCAAGUUUUUUGUUUUUUAACAUGAGGAUCACCCAUGUGCGGUUAUAGUGUGUGUGAUUAGGAUCUUGUGGUCUUAG [JR_SV3TOV1_Sub102] (puzzle: Sensor v3, turn-off variant 1)”, the “apparent KD of MS2 coat protein” value reads like this: under setting [1], 67.8 nM; under setting [2], 123 nM; under setting [3], 98.9 nM.

Turning to “CUGGUCCGAGGAUAUAUUUUGUGAAACAUGAGGAUCACCCAUGUAAUAAAAUGGAUGUAAAUAGAAGGCGGACUAG [Mat - Exclusion 5 - JL mod - D40] (puzzle: Exclusion 5)”, the “apparent KD of MS2 coat protein” value was found to be 26.7 nM under setting [1], 29 nM under setting [2] and 30 nM under setting [3].

As to “AAAAAUCGAGGAUAUACAUGAGGAUCACCCAUGUGGGACCAAGAAAACACAAAAGAAAGUAGAAGGCGAUAAAA [Ex 3 May 23] (Eterna round: R96, puzzle: Exclusion 3)”, the “apparent KD of MS2 coat protein” value amounted to 110 nM (input ligand: FMN 200 uM), 25.8 nM under setting [4] and 31.7 nM (input ligand: none).

“AUAAUGUAAGGAUAUCAGUCGUACAGCUGCGGCUGUACGACUGAGAAGGUACAUGAGGAUCACCCAUGUGGUCA [E4/9-A3] (Eterna round: R97, puzzle: Exclusion 4)”: the “apparent KD of MS2 coat protein” value stood at 324 nM (input ligand: FMN 200 uM) and 694 nM (input ligand: none).

For “UGUACUAUGCGAGCUGACUUGCGUAGUGCAGCAAGUGAAACAUGAGGAUCACCCAUGUCCUCAUUUGCUCGUCUUAU [SL-sv3-2.01 JL mod] (puzzle: Sensor v3, turn-off variant 2)”, the “apparent KD of MS2 coat protein” value runs as follows: under setting [1], 23.3 nM; under setting [2], 337 nM; under setting [3], 22 nM.

Take “AGAGUGCUGCGAGGAUAUACAUGAGGAUCACCCAUGUGGAUCUGUGAGGCAAAGCCUCACAGGAUGUAGAAGGCGCAGUACUCA [Mat - Exclusion NG 2 - Mod of JL - D49] (Eterna round: R96, puzzle: Exclusion NG 2)”: the “apparent KD of MS2 coat protein” value by setting is: (input ligand: FMN 200 uM) 156 nM; under setting [4], 23.4 nM; (input ligand: none) 28.9 nM.

Take “UGUAGAGUGGUAGGAUAUCCGUCUGUUUCAGUCGGAGAAGGACCACAGUCACUGGGUCCUUAUAUGGGUGACCAUGUAUCUACU [pwkr exNG1 F6.5] (Eterna round: R96, puzzle: Exclusion NG 1)”: the “apparent KD of MS2 coat protein” value by setting is: (input ligand: FMN 200 uM) 652 nM; under setting [4], 303 nM; (input ligand: none) 369 nM.

With “CCUAGUUGGUAAGGAUAUCCUACACUAUUCUGACCCGUGCAAGCUACAUGAGGAUCACCCAUGUGGGAGAAGGUGCGUUAACGU [Design 9] (Eterna round: R96, puzzle: Exclusion NG 2)”, the “apparent KD of MS2 coat protein” value came out at 31.2 nM (input ligand: FMN 200 uM), 23.4 nM under setting [4] and 26.7 nM (input ligand: none).

As to “AACCCGUGUGUCAGGAUAUUGAGUCAGACUGGCUACAAGAAGGGACAUGAGGAUCACCCAUGUACUUAGAGAAA [BmEX4 B.22] (Eterna round: R97, puzzle: Brourd's mod of Exclusion 4)”, the “apparent KD of MS2 coat protein” value runs as follows: (input ligand: FMN 200 uM) 37.8 nM; (input ligand: none) 17.9 nM.

With “CCAAAUUCAGGAUAUACGAUGGUGAGUUCGUCCUCAAGGCCACAUGAGGAUCACCCAUGUAGAAGGGAGGUCGG [Eternabot (L1) Solution 77] (Eterna round: R97, puzzle: Exclusion 2)”, the “apparent KD of MS2 coat protein” value by setting is: (input ligand: FMN 200 uM) 130 nM; (input ligand: none) 35.6 nM.
